{
  "source": "patent US11091749B2",
  "about": "“Deimmunized lysostaphin and methods of use” (TRUSTEES OF DARTMOUTH COLLEGE, priority 2014, dated 2021)",
  "key": {"[1]": {"assay": "Thermostability by differential scanning fluorimetry", "type": "physicochemical", "method": "The relative thermostability of the lysostaphin variants was determined by differential scanning fluorimetry, as previously described (Niesen, et al. (2007) Nat. Protocols 2:2212-2221). Proteins and SYPRO Orange were diluted in PBS (final concentrations of 100 μg/ml and 5× in 20 μl reaction volume, respectively), and fluorescence was quantified at 1-degree increments from 25 to 94° C. using an Applied Biosystems ABI 7500 fast real-time PCR system. The reactions were performed using PCR Plates for Fast Thermocyclers (VWR; Radnor, Pa.). Fluorescence was quantified using the preset TAMRA parameters. Melting temperatures were determined by data analysis with the ‘DSF Analysis v3.0.xlsx’ EXCEL sheet and GraphPad Prism v.6.02 software."}, "MRSA strain USA400 [2]": {"tested_on": "MRSA strain USA400", "assay": "In vivo efficacy of F11, intraperitoneal MRSA challenge", "parameters": "species or system C57BL/6 mice", "conditions": "100 μg single bolus i.v. 1 h after 2×10^8 MRSA i.p.", "method": "Mice were challenged with an intraperitoneal injection of 2×10^8 MRSA strain USA400, and 1 hour later the mice were treated with 100 μg wild-type LST, F11 or PBS. The percent survival is shown.\nThe in vivo efficacy of the F11 variant was further analyzed in C57BL/6 mice. Mice were challenged with an intraperitoneal injection of 2×10^8 MRSA strain USA400, and 1 hour later the mice were treated with 100 μg wild-type LST, F11 or PBS, administered as a single bolus intravenous injection. The survival rate for both protein treatments was 1/3. The 100 μg dosage was selected because wild-type LST is known to be only partially efficacious at this dose."}, "MRSA strain USA400 [3]": {"tested_on": "MRSA strain USA400", "assay": "Efficacy of F13 in immunized mice, MRSA challenge", "type": "in vivo, DR4 HLA transgenic mice", "conditions": "500 μg i.v. 1 h after 2×10^8 MRSA i.p.", "method": "The immunogenicity of the F13 variant was compared to wild-type LST in DR4 HLA transgenic mice, i.e., mice bearing partially humanized immune systems. 100 μg of wild-type LST or variant F13 were mixed with complete Freund's adjuvant and injected subcutaneously into DR4 mice. Fourteen days later, antibody titers were measured by ELISA. Variant F13 yielded more than 200-fold lower antibody titers compared to wild-type LST. To assess the impact of antibody titers on antibacterial efficacy, the mice were challenged with an intraperitoneal injection of 2×10^8 MRSA strain USA400, and 1 hour later the mice were treated with 500 μg wild-type LST, variant F13, or PBS, administered as a single bolus intravenous injection. Both mice receiving PBS sham treatments died as did both mice treated with wild-type LST. In contrast, both mice treated with variant F13 survived. Thus, the reduced immunogenicity of F13 conferred enhanced therapeutic efficacy in vivo."}},
  "data": [
    {"substance": "Wild-Type: wild-type lysostaphin (SEQ ID NO:49) produced in P. pastoris; aglycosylated Ser126Pro backbone in the design studies [reference compound]", "values": [
      {"measurement": "Tm", "setting": "[1]; SYPRO Orange, PBS", "value": 59.2, "unit": "°C"},
      {"measurement": "Tm", "setting": "[1]; biological duplicates", "value": 59.0, "unit": "°C"},
      {"measurement": "survival rate", "setting": "MRSA strain USA400 [2]", "value": "1/3"},
      {"measurement": "survival", "setting": "MRSA strain USA400 [3]", "value": "died"}
    ]}
  ]
}
